Data: article PMC5938751

How the values were obtained:
[1] = tested on: Nc1ccn([C@@H]2O[C@H](COP(=O)(O)OP(=O)(O)NC(=O)CC[C@H](N)C(=O)O)[C@@H](O)[C@H]2O)c(=O)n1; test: purified protein; conditions: pH 8.0, 25 °C
[2] = tested on: N[C@@H](CCC(=O)NP(=O)(O)O)C(=O)O; test: purified protein; conditions: fixed 5.0 mM MgCTP, pH 8.0, 25 °C

Q: What does the source list for “Cj1417 (Campylobacter jejuni subsp. jejuni NCTC 11168 = ATCC 700819)”?
A: Km [1]: 28 ± 3 µM; kcat [1]: 0.567 ± 0.02 s⁻¹

Q: What does the source list for “Cj1416 (Campylobacter jejuni subsp. jejuni NCTC 11168 = ATCC 700819)”?
A: Km [2]: 120 ± 30 µM; kcat [2]: 0.95 ± 0.1 s⁻¹
